The source of these data is patent publication US20170298119A1.

The assay has as its target recombinant FcRn protein (Homo sapiens (Human)) (UniProt P55899). Put plainly: BLI (Octet): antibody on anti-CH1 biosensors, recombinant FcRn at pH 6.0; fold change against wild type Motavizumab (p-1342). A general note: Biolayer interferometry detects binding as a change in optical thickness at a sensor tip.

recombinant FcRn protein (Homo sapiens (Human)), sequence (P55899 24-297 limits assumed, chain 1 of 2): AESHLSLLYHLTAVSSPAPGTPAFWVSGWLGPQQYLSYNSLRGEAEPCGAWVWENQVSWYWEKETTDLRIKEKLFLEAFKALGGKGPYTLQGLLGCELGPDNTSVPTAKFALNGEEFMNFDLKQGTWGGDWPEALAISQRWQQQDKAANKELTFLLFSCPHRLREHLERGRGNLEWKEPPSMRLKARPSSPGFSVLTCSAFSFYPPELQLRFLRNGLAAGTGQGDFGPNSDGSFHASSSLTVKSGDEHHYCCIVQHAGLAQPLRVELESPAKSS
recombinant FcRn protein (Homo sapiens (Human)), sequence (beta, as listed by the source limits assumed, chain 2 of 2): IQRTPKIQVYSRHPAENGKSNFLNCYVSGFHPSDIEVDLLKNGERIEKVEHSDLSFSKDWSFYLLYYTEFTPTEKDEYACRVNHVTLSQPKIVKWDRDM

In the case of LS (antibody), the Kd (fold increase) turned out to be 9.3 fold, the koff (fold decrease) was 3.7 fold and the kon (fold increase) stood at 2.5 fold.
